This note sets out measurements from patent publication US20250197870A1, “RECOMBINANT E. COLI STRAIN PRODUCING 1,3-BUTANEDIOL FROM GLUCOSE AND METHOD FOR PRODUCING 1,3-BUTANEDIOL USING SAME” (ActivON Co.,Ltd., priority 2022, published 2025).

First the molecules themselves.
B1: YahK: E. coli-derived alcohol dehydrogenase, 3-hydroxybutyraldehyde reductase, SEQ ID NO: 36 gene product (protein, listed as Escherichia coli)
chain: MKIKAVGAYSAKQPLEPMDITRREPGPNDVKIEIAYCGVCHSDLHQVRSEWAGTVYPCVPGHEIVGRVVAVGDQVEKYAPGDLVGVGCIVDSCKHCEECEDGLENYCDHMTGTYNSPTPDEPGHTLGGYSQQIVVHERYVLRIRHPQEQLAAVAPLLCAGITTYSPLRHWQAGPGKKVGVVGIGGLGHMGIKLAHAMGAHVVAFTTSEAKREAAKALGADEVVNSRNADEMAAHLKSFDFILNTVAAPHNLDDFTTLLKRDGTMTLVGAPATPHKSPEVFNLIMKRRAIAGSMIGGIPETQEMLDFCAEHGIVADIEMIRADQINEAYERMLRGDVKYRFVIDNRTLTD
B2: DhaT: alcohol dehydrogenase from K. pneumoniae (protein, UniProt Q59477 1-387, looked up)
1,3-propanediol dehydrogenase: MSYRMFDYLVPNVNFFGPNAISVVGERCQLLGGKKALLVTDKGLRAIKDGAVDKTLHYLREAGIEVAIFDGVEPNPKDTNVRDGLAVFRREQCDIIVTVGGGSPHDCGKGIGIAATHEGDLYQYAGIETLTNPLPPIVAVNTTAGTASEVTRHCVLTNTETKVKFVIVSWRNLPSVSINDPLLMIGKPAALTAATGMDALTHAVEAYISKDANPVTDAAAMQAIRLIARNLRQAVALGSNLQARENMAYASLLAGMAFNNANLGYVHAMAHQLGGLYDMPHGVANAVLLPHVARYNLIANPEKFADIAELMGENITGLSTLDAAEKAIAAITRLSMDIGIPQHLRDLGVKEADFPYMAEMALKDGNAFSNPRKGNEQEIAAIFRQAF
B3: YgjB (Ahr): E. coli-derived alcohol dehydrogenase, 3-hydroxybutyraldehyde reductase, SEQ ID NO: 35 gene product (protein, listed as Escherichia coli)
chain: MSMIKSYAAKEAGGELEVYEYDPGELRPQDVEVQVDYCGICHSDLSMIDNEWGFSQYPLVAGHEVIGRVVALGSAAQDKGLQVGQRVGIGWTARSCGHCDACISGNQINCEQGAVPTIMNRGGFAEKLRADWQWVIPLPENIDIESAGPLLCGGITVFKPLLMHHITATSRVGVIGIGGLGHIAIKLLHAMGCEVTAFSSNPAKEQEVLAMGADKVVNSRDPQALKALAGQFDLIINTVNVSLDWQPYFEALTYGGNFHTVGAVLTPLSVPAFTLIAGDRSVSGSATGTPYELRKLMRFAARSKVAPTTELFPMSKINDAIQHVRDGKARYRVVLKADF
B4: YqhD: 3-hydroxybutyraldehyde reductase (E. coli), SEQ ID NO: 34 gene product (protein, UniProt Q46856 1-387, looked up)
NADPH-dependent aldehyde …: MNNFNLHTPTRILFGKGAIAGLREQIPHDARVLITYGGGSVKKTGVLDQVLDALKGMDVLEFGGIEPNPAYETLMNAVKLVREQKVTFLLAVGGGSVLDGTKFIAAAANYPENIDPWHILQTGGKEIKSAIPMGCVLTLPATGSESNAGAVISRKTTGDKQAFHSAHVQPVFAVLDPVYTYTLPPRQVANGVVDAFVHTVEQYVTKPVDAKIQDRFAEGILLTLIEDGPKALKEPENYDVRANVMWAATQALNGLIGAGVPQDWATHMLGHELTAMHGLDHAQTLAIVLPALWNEKRDTKRAKLLQYAERVWNITEGSDDERIDAAIAATRNFFEQLGVPTHLSDYGLDGSSIPALLKKLEEHGMTQLGENHDITLDVSRRIYEAAR

This series can be described thus: Activity of purely isolated 3-HBA reductases (alcohol dehydrogenases) for 3-HBA. The format is biochemical. The note with it: pure enzyme, substrate 3-HBA. As to the method:
The activity of alcohol dehydrogenase was determined by photometric monitoring of the increase/decrease in NADP+/NADPH at 340 nm. The reaction mixture included 50 mM Tris-HCl at pH 7.0. For measurement of forward reactions, preparation was followed to include 0.15 mM NADPH and 5 mM 3-hydroxybutyraldehyde as substrates at 37° C. For reverse reactions, 2 mM NADP+ and 30 mM 1,3-BDO were used as cofactors and substrates, respectively. For the reduction reaction, 1 unit of enzymatic activity was defined as the amount of enzyme required to oxidize 1 μmol of NAD(P)H to NADP+ for 1 minute. For oxidation reactions, 1 unit of enzymatic activity was defined as the amount of enzyme required to reduce 1 μmol of NAD(P)+ to NAD(P)H for 1 minute.
Previously, 4 types of enzymes such as Cs_bdh, Ec_yqhD, Kp_dhaT, and Lr_pduQ were tested with 3-HBA reductase (FIG. 3), of which yqhD showing the best performance was used. However, the constant accumulation of 3-HBA and 3-HB indicates a lack of activity in these enzymes. Four aldoketoreductases (AKRs) were tested to improve the conversion from 3-HBA to 1,3-BDO. Two of the selected AKRs were derived from P. denitrificans, one derived from P. putida, and the other from P. aeruginosa. In addition, ygjB and yahK, also known as E. coli-derived alcohol dehydrogenase (ADH), were tested. Thereamong, enzymes coded by ygjB have been reported to have high activity for various aldehydes, especially high activity for butyraldehyde (kcat/Km, 221 sec-1 mM-1), while the enzyme coded by yahK has also been reported to have high activity for various aldehydes, especially high activity for butyraldehyde (kcat/Km, 19.8 sec-1 mM-1). Several ADH genes were cloned into E. coli, mass-produced, isolated and purified, and then tested for the activity of pure enzymes for 3-HBA.
B1: the “Purely isolated enzymatic activity” value came out at 6.98 U/mg protein.

Consider B2, for which the “Purely isolated enzymatic activity” value is on record as 0.44 U/mg protein. As for B3, the “Purely isolated enzymatic activity” value came out at 238 U/mg protein. The value for B4 was 0.06 U/mg protein.
